# In the nanobody polyreactivity screen of Harvey et al. (2022):
# Experiment: yeast display, Sf9 membrane polyspecificity reagent, FACS + sequencing; frameworks hold sequencing errors
# Method in brief: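 Galactose induction of a Saccharomyces cerevisiae BJ5465 synthetic nanobody display library ran 36–48 hours. The cells were then stained for 1 hour at 4 °C with 10% biotinylated, detergent-solubilized Sf9 membrane reagent, pulled down on streptavidin microbeads and FACS-sorted into low and high (top ~1%) gates on expression and reagent-binding fluorescence. Labels for polyreactivity follow the gate of origin.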
row,Sequence,polyreactivity (PSR sort gate)
1,QVQLVESGGGLVQEGGSLRLSCAASGRNFDVNAMGWYRQAPGKERELDAAISSGGNTKYSDSVKGRFTISRDKSKNTVYLQMNSLKPVDSAVYYCKADGKAGGDYDYWVQGTQVTVSS,low polyreactivity
2,QVQLVESGGGLVQEGGSLRLSCAASGRNFGRYAMVRYRQAPGKERELVAAISSSGVATYYADSVKGRFTISRDNAKNTVYLQMNSLKPEDTEVYYCNSLYRVFYGFYYWGQGTQVTVSS,high polyreactivity
3,QVQLVESGGGLVQEGGSLRLSCAASGRTFRINAMGWYRQAPGKERELVAAITSIAGNTYYADSVKGRFTISRDNAKNTVYLQMNSLKPEDTAVYYCAVDSVPWGFRGAYGLTRYYYWGQGTQVTVSS,low polyreactivity
4,QVQLVESGGGLVQEGGSLRLSCAASGSIFSGYAMGWYRQAPGKERELVAGITWSGGSTYYADSVKGRFTISRDNAKNTVYLQMNSLKPEDTSVYYCAAKYYWYYSYSGIPLFDYWGQGTQVTVSS,low polyreactivity
5,QVQLVESGGGLVQEGGSLRLSCAASGSIFYRYTMGWYRPAPGKERELVAAISSRGGSTYYADSVKGRFTISRDNAKNTVYLQMNCLKPEDTAVYYCAARYYRNPVFVIMDYWGQGTQVTVSS,high polyreactivity
6,QVQLVESGGGLVQEGGSLRLSCAASGSIVTLYAMGWSRQAPGKERELVAAITWYGGSTYYADSVKGRFTISRDNAKNTVYLQMNSLKPEDTAVYYCAKDYLAGGPCEGHVEREYDYWGQGTQVTVSS,low polyreactivity
7,QVQLVESGGGLVQEGGSLRLSCAASGSTFHSYAMGWYRQAPGKERELVAGINRTGGSTYYADSVKGRFTISRDNAKNTVYLQMNSLKPEDTAVYYCAAVSYYASDYRYDYWGQGTQVTVSS,low polyreactivity
8,QVQLVESGGGLVQEGGSLRLSCAASGSTFRRYAMGWYRQAPGKERELVASISRSGGSTYYADSVKGRFTISRDNAKNTVYLQMNSLKSEDTAVYYCSKKPYKSAYDYSTAYDYWGQGTLVTVSS,high polyreactivity
9,QVQLVESGGGLVQEGGSLRLSCAASGSTFRTYAMGWYRQAPGKERELVAAISGDTSTNYADSVKGRFTISRDNAKNTVYLQMNSLKPEDTAVYYCAAYWTTYATLWYDYWGQGTQVTVSS,low polyreactivity
10,QVQLVESGGGLVQEGGSLRLSCAASGTIFGIYAMGWYRKAPGKERELVAAISKSGGGTYYADSVKGRFTISRDNSKNTVFLQMNSLKPEDTAVNYCNVYVSKYRRFEYWGQGTQVTVSS,high polyreactivity
11,QVQLVESGGGLVQEGGSLRLSCAASVFIIDYYAMGWYRQAPGKERELVASISYNSVSTTYADSVKGRFTISRDNAKNTVYLQMNSLKPEDTAVYYCAATSWYWAYTYYYWGQGTQVTVSS,low polyreactivity
12,QVQLVESGGGLVQEGGSLRLSCAATGSIFSSYAMGWYRQAPGKERELVASINSAGSTNYADSVKGRFTISRDNAKITVYLQMNSLKPEDTAVYYCARGGAVVYLDYWGQGTQVTVSS,low polyreactivity
13,QVQLVESGGGLVQEGGSLRLSCADSGFIFRRYAMGWYIQAPGKERELVAAIRSDGSTNYADSVKGRFTISRDNAKNTVYLQMNSLKPEDTAVYYCAATYYSYTWFSQYYYWGQGTQVTVSS,high polyreactivity
14,QVQLVESGGGLVQEGGSLRLSCADSGSTFASYAMGWNRQAPGKERELVAAITDSGGSTYYADSVKGRFTISRDNAKNTVYLQMNSLKPEVTAVYDCAAEDQESNAAGGYWGQGTQVTVSS,low polyreactivity
15,QVQLVESGGGLVQEGGSLRLTCAASGSTFSDYAMGWYRQAPGKERELVAAISKRGGRTYYADSVKGRFTISRDNEKNTVYLQMNSLKPEDTAVYDCAADLPNAKWYGYDYWGQGTQVTVSS,high polyreactivity
16,QVQLVESGGGLVQEGGSLRVSCAASGIIFSSYVMGWYRQAPGKERELVAAISKSGARTSYADSVKGRFTISRDNAKNTVYLQMNSLKPEDTAVYYCAATFRLERPTSKHPRYDYWGQGTQVTVST,low polyreactivity

row,Sequence,polyreactivity (PSR sort gate)
1,QVQLVESGGGLVQEGGSLSLSCAASGSTFTVYNMGWYRKAPGEERELVAANSRRGDSTYYADSVKGRFTISRDNAKNTVYSQMHSLKPEETAVYYSNARSAYGTGNQRGRRYYWGQGTEVTVSS,high polyreactivity
2,QVQLVESGGGLVQERVSLRLSCAASGFIFLFNAMGWNRQAPGKERELVAAISDDGSTYYADSLKGRFTISRDNAKNTVYLQMTSLKTEDTAVYYCAAEYYYDRYTLDYWGQGTQVTVSS,high polyreactivity
3,QVQLVESGGGLVQGGGSLRIICAASGFTFTDYAMGWYRQAPGKERELVAAIDGSGGRTYYAYSVKGRFTISRDNAKNTFYLQMNSLKPEHTAVYYCAAGLYSRLYWYRLDYWGQGTQVTVSS,low polyreactivity
4,QVQLVESGGGLVQGGGSLRLRCAASGFNFDWYTMGWYRQAPGKERELVAAITIGGSTDYADSVKGRFTISRDNAKNTVYLQMNSLKREDTAVYYCNALWYLSGTWYDYWGQGTQVTVSS,low polyreactivity
5,QVQLVESGGGLVQGGGSLRLSCAASGFTFYYNAMGSYRQAPGKERELVADITSGGDTYYADSVKGRFTISRDNAKNTVYLQRNSLKPEDTAVYYCAAELWGLFDYWGQGTEVTVSS,low polyreactivity
6,QVQLVESGGGLVQGGGSLRLSCAASGRIFDRYAMGWYRQAPGKERELVAAISSSGGSTYYADSVKGRFTISRDNAKNTVYLQMNSLKPEDTPVYYCNADYYVSKLDYWGQGTQVTVSS,high polyreactivity
7,QVQLVESGGGLVQGGGSLRLSCAASGRIFDYYTMGWYRPAPGKERELVAAISSGGSTNYADYVKGRFTISRDNAKNTVYLQMNSLKPEDTAVYYCNVDLTTVGHWYYYRPGYDYWEQGTQVTVSS,low polyreactivity
8,QVQLVESGGGLVQGGGSLRLSCAASGRNWSRYAMGWYRQAPGKERELVADITYSGGNTYYADSVKGRFTISRDNAKNTVYLQMNSLKPEDTAVYYCSTGWSWWTFDYWGQGTQVTVSS,high polyreactivity
9,QVQLVESGGGLVQGGGSLRLSCDASGFIFPAYARGWYRQAPGKEREWVAAISKSGGRTYYADSVKGRFTISRDNAKNPVYLQMNRLKPEDTAVNYCPARLYNYDTSSSFDYWGQGTQVNVSS,high polyreactivity
10,QVQLVESGGGLVQGGGSLRLSFAASGSIFWRNAMGWYRQAPGKERELVAAITSGGSTYYADSVKGRFTISRDNAKNTVYLQMNSLKPEDTAVYYCAAGGRWARWLFPSRYDYWGQGTQVTVSS,low polyreactivity
11,QVQLVESGGGLVQGGGSLSLSCAASGITFLNYAMGWYRQAPGKERELVAAITWRGGRTYYADSVKGRFTISRDNEKNTVYLQMNSLKPEDTAVYYCARRPGYALTWRVSGRYDYWGQGTQVTVSS,high polyreactivity
12,QVQLVESGGGLVQGGSLRLSCAATGFTFPIYVMAWYRQAPGKERQLVDSISSVGSTNYADSVKGRFTISRDNAKNTVYLQMNSMKPEDTAVYYCNADAPNSYGGFDYWGQGTQVTVSS,low polyreactivity
13,QVQLVESGGGLVQGVGTLRLSCAASGITFVYYAMGWSRHAPVKERELFAAISSGGSSTYYADSVKGRFTMSRDTAKNTVYLQMHSQKPEDTAVYYCAATNYFPRLQWMDYWGQGTQVTVSS,low polyreactivity
14,QVQLVESGGGLVQPGCSLRLSCAASGSIFYAYDMGWYRQSPGKERQLVAAISWSGGTTYYADSVKGRFTISRDNAKNTVYLQMNSLIPEDTAVYYCAAREYYTDVHGTRRYDYWGQGTQVTVSS,low polyreactivity
15,QVQLVESGGGLVQPGGSLRLSCAASGFIFTLYAMGWYRQAPGKEREFFAAISWSDGSTTYADSVKGRFTISRDNAKNTVYLQMNSLKREDTAVYYCAAVTSSYIRGLVYHFYYWGQGTLVTVSS,low polyreactivity
